Assays:
Assay in all cases: cell_activity
[1] = tested on: TaGliadin_T03.1 TALE nuclease pair; details: wheat protoplasts; also 0.00 for all treatments in TABLE 7
[2] = tested on: TaGliadin_T02.1 TALE nuclease pair; details: wheat protoplasts; TABLE 7: 0.00 nuclease only, 2.43 with TREX, 5.33 with 5-azacytidine, 0.00 with trichostatin A
[3] = tested on: TaGliadin_T01.1 TALE nuclease pair; details: wheat protoplasts, nuclease only; 0.325% in TABLE 6; 2.40 with TREX, 1.29 with 5-azacytidine, 0.90 with trichostatin A

Work on “TCAGCAACAGCCACAAGAGCAAGTTCCATTGGTGCAACAACAACAATTTCCA (double strand) [TaGliadin_T03.1 target]” yielded an activity (% mutation frequency) [1] of 0.
In the case of “TCTCATCCTTGCCCTCCTTGCTATCGTGGCGACCACCGCCACAACTGCA (double strand) [TaGliadin_T02.1 target]”, the activity (% mutation frequency) [2] is reported as 0.746.
“TTAGAGTTCCAGTGCCACAATTGCAGCCACAAAATCCATCTCAGCAACA (double strand) [TaGliadin_T01.1 target]” was tested, and the activity (% mutation frequency) [3] was 1.57.

From patent publication US20200002709
